{"source": "patent US20090196913A1", "about": "(published 2009)", "binders": {"B1": {"name": "CNTO95 Fab′ (from pepsin cleavage, reduction and reoxidation) conjugated to PEG-DSPE on the surface of liposomes (Fab, V domains shown)", "VH": "QVQLVESGGGVVQPGRSRRLSCAASGFTFSRYTMHWVRQAPGKGLEWVAVISFDGSNKYYVDSVKGRFTISRDNSENTLYLQVNILRAEDTAVYYCAREARGSYAFDIWGQGTMVTVSS", "VL": "EIVLTQSPATLSLSPGERATLSCRASQSVSSYLAWYQQKPGQAPRLLIYDASNRATGIPARFSGSGSGTDFTLTISSLEPEDFAVYYCQQRSNWPPFTFGPGTKVDIKR", "modifications": "free sulfhydryl near the C-terminus conjugated to maleimide-PEG-DSPE inserted in the liposome"}}, "molecular_target": "human αVβ3/5 integrins on human tumor cells (A375.S2, MDA-MB-231, A2780, HT29, A549) (human, UniProt P06756 31-1048)", "sequence (P06756 31-1048)": "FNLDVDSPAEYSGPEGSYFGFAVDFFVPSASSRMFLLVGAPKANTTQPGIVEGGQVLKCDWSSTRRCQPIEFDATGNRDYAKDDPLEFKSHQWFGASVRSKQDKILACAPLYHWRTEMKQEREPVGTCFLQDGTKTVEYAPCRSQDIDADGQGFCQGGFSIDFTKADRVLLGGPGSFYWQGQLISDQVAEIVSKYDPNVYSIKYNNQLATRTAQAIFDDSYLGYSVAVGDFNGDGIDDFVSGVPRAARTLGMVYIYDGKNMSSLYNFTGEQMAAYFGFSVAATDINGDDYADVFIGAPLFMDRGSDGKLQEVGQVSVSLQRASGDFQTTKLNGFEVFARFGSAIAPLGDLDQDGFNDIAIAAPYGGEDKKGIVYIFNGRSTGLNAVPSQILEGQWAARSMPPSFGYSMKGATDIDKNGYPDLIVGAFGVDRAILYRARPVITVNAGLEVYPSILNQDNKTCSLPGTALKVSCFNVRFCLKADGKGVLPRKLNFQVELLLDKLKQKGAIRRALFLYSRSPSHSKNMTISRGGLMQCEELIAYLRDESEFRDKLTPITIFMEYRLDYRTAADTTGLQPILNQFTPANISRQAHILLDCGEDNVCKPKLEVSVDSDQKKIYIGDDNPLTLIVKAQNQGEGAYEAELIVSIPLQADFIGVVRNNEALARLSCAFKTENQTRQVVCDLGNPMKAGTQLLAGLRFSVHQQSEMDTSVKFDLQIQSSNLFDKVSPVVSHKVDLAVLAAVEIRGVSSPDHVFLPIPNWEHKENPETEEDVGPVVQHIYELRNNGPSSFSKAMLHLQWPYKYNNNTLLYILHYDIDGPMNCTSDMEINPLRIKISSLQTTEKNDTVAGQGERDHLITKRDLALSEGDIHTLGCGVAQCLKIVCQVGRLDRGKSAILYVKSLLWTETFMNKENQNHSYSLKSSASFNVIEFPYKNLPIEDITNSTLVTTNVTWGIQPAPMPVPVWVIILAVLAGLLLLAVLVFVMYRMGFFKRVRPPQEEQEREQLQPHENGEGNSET", "experiment": "cell-based or functional assay", "data": [{"binder": "B1", "values": [{"measurement": "Increase (ratio of IC50 of liposome-entrapped doxorubicin to IC50 of 90:1 integrin-targeted liposomes), breast cancer MDA-MB-231", "result": 5}, {"measurement": "Increase (ratio of IC50 of liposome-entrapped doxorubicin to IC50 of 90:1 integrin-targeted liposomes), colon cancer HT29", "result": 1.1}, {"measurement": "Increase (ratio of IC50 of liposome-entrapped doxorubicin to IC50 of 90:1 integrin-targeted liposomes), lung cancer A549", "result": 1}, {"measurement": "Increase (ratio of IC50 of liposome-entrapped doxorubicin to IC50 of 90:1 integrin-targeted liposomes), melanoma A375.S2", "result": 29}, {"measurement": "Increase (ratio of IC50 of liposome-entrapped doxorubicin to IC50 of 90:1 integrin-targeted liposomes), ovarian cancer A2780", "result": 29}]}]}
